Assays:
[1] = test system: human Burkitt lymphoma cell line CA46; test: Combination of vasostatin and IL-12 on human Burkitt lymphoma in nude mice; assay type: in vivo, BALB/c nude mice; settings: both experiments; MBP-vasostatin 100 μg/day, mIL-12 100-200 ng/day s.c.
Experimental: Athymic BALB/c nude mice received 400 rad total body irradiation and 24 hours later were inoculated (4×10^6 cell/mouse) with the human Burkitt lymphoma cell line CA46. A and B. 5 days after cell inoculation the established tumors were treated with daily s.c. inoculations (6 days/week) of either formulation buffer alone (closed circles), MBP-vasostatin alone (Seq. I.D. No. 4; 100 μg/day; open squares), mIL-12 alone (200 ng/day for 8 days followed by 100 ng/day; open circles), or the combination of MBP-vasostatin (Seq. I.D. No. 4) and mIL-12 (same dose used as single agents; open triangles). All mice were sacrificed after 15 days of treatment. C and D. 1 day after cell inoculation, s.c. treatment with MBP-vasostatin (Seq. I.D. No. 4; 100 μg/day; 6 days/week) or formulation buffer was started; s.c. treatment with IL-12 (100 ng/mouse; 6 days/week) was started 2 days later in mice that had received buffer alone or MBP-vasostatin (Seq. I.D. No. 4). Therefore, four groups of mice were tested: Mice receiving buffer alone (closed circles); MBP-vasostatin alone (open squares); IL-12 alone (open circles); and MBP-vasostatin plus IL-12 (open triangles). The mice received 7 days treatment with MBP-vasostatin (Seq. I.D. No. 4) and 5 days treatment with IL-12, and were observed untreated for 14 days at which time all mice were sacrificed. […]

[2] = test system: bFGF-induced neovascularization; test: Murine Matrigel assay of angiogenesis in vivo; design: species or system BALB/c nude mice; settings: Exp. 4; concentration not given; bFGF 150 ng/ml
Experimental: The murine Matrigel assay (Passaniti et al., Lab. Invest. 67:519-528, 1992) was employed to evaluate the effects of calreticulin and calreticulin fragments on angiogenesis in vivo. The Matrigel assay was performed as described by Angiolillo et al. (J. Exp. Med. 182:155-162, 1995). Matrigel, a crude extract of the Englebreth-Holm-Swarm tumor, was obtained from Collaborative Biomedical Products, Becton Dickinson Labware, Bedford, Mass. An aliquot (0.5 ml) of Matrigel alone or with desired additives was injected subcutaneously (s.c.) into the mid abdominal region of female BALB/c nude mice, 6-8 weeks old. Five mice were injected with each mixture. After 5-7 days, the animals were sacrificed, Matrigel plugs were removed, fixed in 10% neutral buffered formalin solution (Sigma), and embedded in paraffin. Tissues were sectioned (5μ thickness), and slides stained with Masson's trichrome. Quantitative analysis of angiogenesis in Matrigel plugs utilized a computerized semi-automated digital analyzer (Optomax, 40-10 System, Hollis, N.H.). The instrument was adjusted to evaluate a circular area measuring […] of Matrigel, and within this area, to measure the area occupied by cells. For each plug, 12-15 distinct fields were evaluated. The fields were randomly selected from each plug, and the operator was blind to the experimental design. The average area occupied by cells/1.26×10^5 […] Matrigel field was calculated. Results are expressed as the mean area occupied by cells/Matrigel field.
Matrigel plugs were fixed in 10% neutral buffered formalin solution (Sigma), embedded in paraffin, sectioned at 4 μm, and stained with Masson's trichrome by standard methods.

[3] = test system: human Burkitt lymphoma cells (CA46 cell line); test: Prevention of human Burkitt lymphoma growth in athymic mice; assay type: in vivo, BALB/c athymic mice; settings: 4×10^6 CA46 cells; 75 μg/day, 6 days/week, 42 days
Text: FIGS. 6A, 6B, 6C and 6D are graphs showing the inhibition of tumor growth by vasostatin (Seq. I.D. No. 4) and calreticulin (Seq. I.D. No. 3). Burkitt lymphoma cells (CA46 cell line, 1×10^7 cells) were inoculated subcutaneously (s.c.) into BALB/c athymic mice, 6 weeks of age. Beginning on the day of cell inoculation and continuing thereafter daily, 6 days/week, mice were inoculated s.c. with either control buffer (open symbols) or test protein (closed symbols). The results reflect the % mice with tumor as a function of time. A. 12 mice were inoculated with control purified GST protein (Seq. I.D. No. 2; 20 μg/day×14 days), and 13 mice were inoculated with purified GST-calreticulin ([…]; 60 μg/day×14 days). […]
BALB/c nu/nu female mice, 6 weeks of age (National Cancer Institute, Frederick, Md.) maintained in pathogen-limited conditions, received 400 rad (1 rad=0.01 Gy) total body irradiation and 24 hours later were injected s.c. in the right abdominal quadrant with 10^7 exponentially growing human Burkitt lymphoma cells (CA46 cell line; Sgadari et al., Proc. Natl. Acad. Sci. U.S.A. 93:13791-13796, 1996) in 0.2 ml PBS. […] A subcutaneous mass appearing at or proximal to the site of cell inoculation was considered a tumor when it measured at least 0.16 cm^2 in surface area and increased in size by at least 0.1 cm^2 over the following week. […]

[4] = test system: peptides KLGFFKR, KAFFKR and KVFFKR coupled to CNBr-activated Sepharose; test: Affinity column binding to integrin / steroid receptor motif peptides; settings: elution with 20 mM EDTA
Text: FIG. 18 is a Western blot analysis of fractions obtained through affinity purification over a column containing KXaa1FFXaa2R (Seq. I.D. No. 11) and KXaa1GFFKR (Seq. I.D. No. 10). Purified supernatants from the VDS-0 cell line containing full length calreticulin and N-terminal fragments of calreticulin were affinity purified over a mixture of peptides KLGFFKR (Seq. I.D. No. 13), KAFFKR (Seq. I.D. No. 33) and KVFFKR (Seq. I.D. No. 32) coupled to CNBr-activated Sepharose. Starting material (lane 1), unbound material (lanes 2, 3) and bound material (lanes 4, 5) were separated by SDS-PAGE, transferred to nitrocellulose, and subsequently stained with a rabbit antiserum against human calreticulin.
To this end, purified preparations of the VDS-O cell line containing full length calreticulin (Seq. I.D. No. 3) as well as N-terminal calreticulin fragments were prepared and tested to determine how these components were retained over an affinity column. To prepare the affinity column, three peptides were synthesized ([…], Seq. I.D. 13; KAFFKR, Seq. I.D. No. 33; and KVFFKR, Seq. I.D. No. 32), purified, and coupled to CNBr-activated Sepharose 4B (Pharmacia). First, the ability of calreticulin, purified from the culture supernatant of the lymphoblastoid cell line VDS-O, to selectively bind to the column and be eluted by a buffer solution containing 20 mM EDTA and 100 mM NaCl, was verified. […]

[5] = test system: Fetal bovine heart endothelial cells
Experimental: Fetal bovine heart endothelial cells (American Type Culture Collection, ATCC, Manassas, Va.) were grown through passage 12 in DMEM culture medium (BioWhittaker, Walkersville, Md.) containing 10% heat inactivated fetal bovine serum (BioWhittaker), 100 ng/ml bFGF (R&D Systems, Minneapolis, Minn.), and 5 μg/ml gentamicin (Sigma). For proliferation assays, cells were trypsinized (Trypsin/EDTA, Gibco BRL), washed, suspended in culture medium (DMEM containing 10% heat inactivated fetal bovine serum and 5 μg/ml gentamicin), plated (800 cells/well in 0.2 ml culture medium) in triplicate onto 96 well plates, and incubated for 5 days.

| Molecule | rate of tumor growth and mean weight of tumors compared with formulation buffer [1] | Inhibition (%) [2] [%] | Mean Surface Area Occupied by Cells [2] | rate of Burkitt tumor growth compared to controls [3] | binding to peptide affinity column [4] | inhibition of fetal bovine heart endothelial cell proliferation ([5]; 0.5 μg/ml, bFGF-induced) [%] | endothelial cell growth inhibitory activity in vitro, side-by-side comparison on a molar basis ([5]; 0.4-32 nM, bFGF 15 ng/ml, 5 days) |
| --- | --- | --- | --- | --- | --- | --- | --- |
| mIL-12: murine IL-12 (Interleukin 12) (protein, UniProt P43431 23-215; P43432 23-335, looked up) Interleukin-12 subunit alpha: RVIPVSGPARCLSQSRNLLKTTDDMVKTAREKLKHYSCTAEDIDHEDITRDQTSTLKTCLPLELHKNESCLATRETSSTTRGSCLPPQKTSLMMTLCLGSIYEDLKMYQTEFQAINAALQNHNHQQIILDKGMLVAIDELMQSLNHNGETLRQKPPVGEADPYRVKMKLCILLHAFSTRVVTINRVMGYLSSA Interleukin-12 subunit beta: MWELEKDVYVVEVDWTPDAPGETVNLTCDTPEEDDITWTSDQRHGVIGSGKTLTITVKEFLDAGQYTCHKGGETLSHSHLLLHKKENGIWSTEILKNFKNKTFLKCEAPNYSGRFTCSWLVQRNMDLKFNIKSSSSSPDSRAVTCGMASLSAEKVTLDQRDYEKYSVSCQEDVTCPTAEETLPIELALEARQQNKYENYSTSFFIRDIIKPDPPKNLQMKPLKNSQVEVSWEYPDSWSTPHSYFSLKFFVRIQRKKEKMKETEEGCNQKGAFLVEKTSTEVQCKGGNVCVQAQDRYYNSSCSKWACVPCRVRS | reduced | – | – | – | – | – | – |
| MBP-120-180 calreticulin: recombinant 61 amino acid calreticulin fragment, amino acids 120-180 (Seq. I.D. No. 5), fused to MBP (protein, left off: large carriers) CGPGTKKVHVIFNYKGKNVLINKDIRCKDDEFTHLYTLIVRPDNTYEVKIDNSQVESGSLE | – | 70 | 2,458 mm^2/1.26 × 10^5 mm^2 | significantly reduced | failed to bind | 65 | similar |

From US6867180B1, “Use of calreticulin and calreticulin fragments to inhibit endothelial cell growth and angiogenesis, and suppress tumor growth” (The United States of America as represented by the …, priority 1998, dated 2005)
